± gives the standard deviation of the averaged measurements.
Assays:
[1] = system: Saccharomyces cerevisiae; assay: protein stability index of tFT-peptide fusion in wild type (PSI (0-1 scale)); higher = more stable (slower turnover); conditions: genetic background: wild type
Procedure: (§1)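 MPS profiling in S. cerevisiae of two library types built from selected 12-aa C-degron peptides (IN1, IN2, LN1, LN3, VN2, R1-R5, W1-W3, Atg1 and Rpa12 C-termini): saturation mutagenesis libraries and C-terminal +1 capping libraries (13 aa). Each peptide is fused to the C-terminus of a sfGFP-mCherry timer, after a GGGS linker. Cells are FACS-sorted into 8 mCherry/sfGFP bins and sequenced. PSI runs from 0 (unstable) to 1 (stable), measured once in wild type and in the das1Δ or doa10Δ background.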

[2] = system: Saccharomyces cerevisiae; assay: protein stability index of tFT-peptide fusion in deletion strain of DAS1 (PSI (0-1 scale)); higher = more stable (slower turnover)
Procedure: as §1

[3] = system: Saccharomyces cerevisiae; assay: protein stability index of tFT-peptide fusion (C-terminal peptide) (PSI (0-1 scale)); higher = more stable (slower turnover); conditions: temperature: 30 C
Procedure: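 MPS profiling in S. cerevisiae of the yeast C-terminome library: the last 12 aa of each annotated ORF are fused to the C-terminus of a sfGFP-mCherry timer, after a GGGS linker. Cells are FACS-sorted into 8 mCherry/sfGFP bins and deep-sequenced. PSI runs from 0 (unstable) to 1 (stable); wild type and das1Δ backgrounds, two technical replicates each.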

[4] = genetic background: das1 deletion
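For protein stability index of tFT-peptide fusion in deletion strain of DAS1 in this document: PSI is a weighted mean of each variant's read distribution over the sorted stability bins, computed only for variants having over 10 reads in total.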
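For protein stability index of tFT-peptide fusion in wild type in this document: PSI derived as read-weighted mean over the 8 sorting bins, only variants exceeding 10 total reads kept, mCherry placed adjacent to the peptide and sfGFP distal.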

Sequence | protein stability index [1] | protein stability index [2] | protein stability index [3, 4] | protein stability index ([3]; genetic background: wild type)
ARFRVGLWRGAS | 0.56 | 0.668 |  | 
ARPRVGLWRGAS | 0.65 | 0.681 |  | 
ARWAVGLWRGAS | 0.428 | 0.71 |  | 
ARWRQGLWRGAS | 0.678 | 0.616 |  | 
ARWRVGGWRGAS | 0.557 | 0.701 |  | 
ARWRVGLWDGAS | 0.705 | 0.688 |  | 
ARWRVGLWRGAE | 0.644 | 0.685 |  | 
ARWRVGLWRGAK | 0.669 | 0.659 |  | 
ARWRVGLWRGASC | 0.628 | 0.669 |  | 
ARWRVGLWRGASS | 0.593 | 0.688 |  | 
ARWRVGLWRGCS | 0.266 | 0.683 |  | 
ARWRVGLWRGYS | 0.621 | 0.659 |  | 
ARWRVGLWRMAS | 0.0865 | 0.683 |  | 
ARWRVGMWRGAS | 0.458 | 0.701 |  | 
TFEELWNGVEGI [ARH1 C-terminal 12 aa] |  |  | 0.722 ± 0.016 | 0.682 ± 0.038
TFGKCILDGFKA [SCM4 C-terminal 12 aa] |  |  | 0.709 ± 0.017 | 0.687 ± 0.05
TGQVGVPTISQV [NCE102 C-terminal 12 aa] |  |  | 0.687 ± 0.021 | 0.6819 ± 0.0068
THENIHQKFVQF [SFB3 C-terminal 12 aa] |  |  | 0.7294 ± 0.004 | 0.6358 ± 0.0022
THTHHNPNPTLF [YNL338W C-terminal 12 aa] |  |  | 0.707 ± 0.011 | 0.716 ± 0.075
TILFMLVLYTIV [YDL241W C-terminal 12 aa] |  |  | 0.222 ± 0.017 | 0.222 ± 0.023
TKVIQVQKKCIQ [IRC14 C-terminal 12 aa] |  |  | 0.688 ± 0.026 | 0.672 ± 0.032

Sequence | protein stability index [1] | protein stability index [2] | protein stability index [3, 4] | protein stability index ([3]; genetic background: wild type)
TKVYFLGRDSSV [NDE2 C-terminal 12 aa] |  |  | 0.688 ± 0.013 | 0.6764 ± 0.0011
TLIDYFIENDGL [LYS5 C-terminal 12 aa] |  |  | 0.7227 ± 0.0034 | 0.761 ± 0.092
TLRGLSNAFPTD [MME1 C-terminal 12 aa] |  |  | 0.7057 ± 0.0043 | 0.703 ± 0.013
TPKYVESDEDDQ [TOF2 C-terminal 12 aa] |  |  | 0.654 ± 0.041 | 0.7196 ± 0.0037
TQSPADFSSQNH [NHX1 C-terminal 12 aa] |  |  | 0.74 ± 0.021 | 0.701 ± 0.021
TRGEATLRANYQ [YOR008W-B C-terminal 12 aa] |  |  | 0.6862 ± 0.003 | 0.73 ± 0.055
TRGPRRKLPTRV [BSP1 C-terminal 12 aa] |  |  | 0.6863 ± 0.0066 | 0.672 ± 0.06
TSIEEDLASKSE [RTA1 C-terminal 12 aa] |  |  | 0.689 ± 0.02 | 0.676 ± 0.008
TSSQYEGVALGM [EAF3 C-terminal 12 aa] |  |  | 0.695 ± 0.013 | 0.669 ± 0.0083
TTHGLKQKLQHA [RTN2 C-terminal 12 aa] |  |  | 0.701 ± 0.011 | 0.698 ± 0.024
TTRYAKEMNIIS [HIR2 C-terminal 12 aa] |  |  | 0.694 ± 0.031 | 0.705 ± 0.054
TVSSVESVLAHL [AHP1 C-terminal 12 aa] |  |  | 0.728 ± 0.016 | 0.7489 ± 0.0029
VACDSDSSSTIE [YEN1 C-terminal 12 aa] |  |  | 0.679 ± 0.016 | 0.699 ± 0.014
VATYLREHEYDQ [AAP1 C-terminal 12 aa] |  |  | 0.6847 ± 0.0021 | 0.7314 ± 0.0051
VDFIKEFAEKNA [SER1 C-terminal 12 aa] |  |  | 0.708 ± 0.011 | 0.706 ± 0.014
VDIRSFRQDMDL [YJR056C C-terminal 12 aa] |  |  | 0.703 ± 0.021 | 0.664 ± 0.017
VDNFISVLKQGQ [LOS1 C-terminal 12 aa] |  |  | 0.7081 ± 0.0044 | 0.668 ± 0.0073
VDVLKLNDPTRH [BCY1 C-terminal 12 aa] |  |  | 0.716 ± 0.031 | 0.706 ± 0.042
VEAVKRVLTKKF [IMG2 C-terminal 12 aa] |  |  | 0.6883 ± 0.0047 | 0.694 ± 0.012
VFDENMYSKYSS [BRO1 C-terminal 12 aa] |  |  | 0.712 ± 0.012 | 0.712 ± 0.032
VFLVISQHSLHS [YDR545C-A C-terminal 12 aa] |  |  | 0.6541 ± 0.0036 | 0.652 ± 0.011

Sequence | protein stability index [1] | protein stability index [2] | protein stability index [3, 4] | protein stability index ([3]; genetic background: wild type)
VGADSYAEEEEF [TUB1 C-terminal 12 aa] |  |  | 0.687 ± 0.032 | 0.676 ± 0.032
VGDIVWKIRNIN [TTI1 C-terminal 12 aa] |  |  | 0.689 ± 0.026 | 0.1985 ± 0.0019
VGDLEAGLRRKK [IMG1 C-terminal 12 aa] |  |  | 0.712 ± 0.0076 | 0.6655 ± 0.0024
VHCGCRGCASTD [BUD31 C-terminal 12 aa] |  |  | 0.669 ± 0.0018 | 0.673 ± 0.017
VIDLDNSVAREV [MDL1 C-terminal 12 aa] |  |  | 0.7044 ± 0.0069 | 0.64 ± 0.007
VILMVDFTLVGP [YDR262W C-terminal 12 aa] |  |  | 0.429 ± 0.023 | 0.426 ± 0.0078
VKKLLEIRSKSS [GTT2 C-terminal 12 aa] |  |  | 0.681 ± 0.0073 | 0.369 ± 0.0065
VKKLVTDMLAKI [CFT2 C-terminal 12 aa] |  |  | 0.6957 ± 0.00094 | 0.669 ± 0.029
VLSFNPKVWLLV [YAR068W C-terminal 12 aa] |  |  | 0.562 ± 0.0081 | 0.0978 ± 0.0096
VNGELKYVKPED [AFT1 C-terminal 12 aa] |  |  | 0.6945 ± 0.0046 | 0.6909 ± 0.0017
VPGNPGVVFQNI [CDC60 C-terminal 12 aa] |  |  | 0.708 ± 0.018 | 0.75 ± 0.082
VQSTDIAAMQKL [EFB1 C-terminal 12 aa] |  |  | 0.721 ± 0.014 | 0.683 ± 0.035
VRKLSFHVYEDE [ACM1 C-terminal 12 aa] |  |  | 0.6908 ± 0.001 | 0.658 ± 0.0079
VSKMDCDPLTVA [NIF3 C-terminal 12 aa] |  |  | 0.678 ± 0.027 | 0.676 ± 0.025
VTFLVFANLRLW [YBR223W-A C-terminal 12 aa] |  |  | 0.566 ± 0.013 | 0.575 ± 0.027
VVCFVSYQKLSS [OPI9 C-terminal 12 aa] |  |  | 0.635 ± 0.011 | 0.168 ± 0.026
VVEALRDAVGDV [NBP35 C-terminal 12 aa] |  |  | 0.706 ± 0.014 | 0.696 ± 0.02
VVVVPSVVETRK [SSO2 C-terminal 12 aa] |  |  | 0.681 ± 0.031 | 0.668 ± 0.026
VWADILNKLGKD [ADK1 C-terminal 12 aa] |  |  | 0.704 ± 0.013 | 0.719 ± 0.025
VYALSIKRSKLT [EPT1 C-terminal 12 aa] |  |  | 0.6803 ± 0.0053 | 0.208 ± 0.0051
VYELVDAEALFS [YDR131C C-terminal 12 aa] |  |  | 0.745 ± 0.02 | 0.682 ± 0.012

Sequence | protein stability index [1] | protein stability index [2] | protein stability index [3, 4] | protein stability index ([3]; genetic background: wild type)
WAVGGVELTTDI [GCN1 C-terminal 12 aa] |  |  | 0.76 ± 0.021 | 0.705 ± 0.026
WDGNLFVWNGLG [PEX7 C-terminal 12 aa] |  |  | 0.7335 ± 0.0029 | 0.4319 ± 0.0013
WKKDNKIQVVKN [GIM4 C-terminal 12 aa] |  |  | 0.725 ± 0.026 | 0.663 ± 0.019
WPRVASNSGVVV [RPL23A C-terminal 12 aa] |  |  | 0.7042 ± 0.0044 | 0.679 ± 0.018
WTALVVNILGRF [CWH41 C-terminal 12 aa] |  |  | 0.634 ± 0.012 | 0.634 ± 0.011
YAELAERKKQEN [COX9 C-terminal 12 aa] |  |  | 0.6916 ± 0.0031 | 0.6914 ± 0.0022
YAGENFHHGDKL [ENO2 C-terminal 12 aa] |  |  | 0.6954 ± 0.003 | 0.749 ± 0.034
YCIYQILILVKH [YCL065W C-terminal 12 aa] |  |  | 0.149 ± 0.019 | 0.171 ± 0.013
YDEDEGSDYDFI [SUP45 C-terminal 12 aa] |  |  | 0.6992 ± 0.0034 | 0.684 ± 0.012
YDENSKPKGTKE [FUN30 C-terminal 12 aa] |  |  | 0.6948 ± 0.0051 | 0.704 ± 0.016
YEAKLSKRILRD [SCM3 C-terminal 12 aa] |  |  | 0.7215 ± 0.0071 | 0.723 ± 0.0073
YFVNNIIVRIQS [YKL118W C-terminal 12 aa] |  |  | 0.559 ± 0.009 | 0.329 ± 0.028
YGVPDAELKIVG [DGA1 C-terminal 12 aa] |  |  | 0.719 ± 0.02 | 0.672 ± 0.019
YHLFYMKLQKKI [SPE2 C-terminal 12 aa] |  |  | 0.6977 ± 0.0069 | 0.187 ± 0.013
YKELKDFIFAEK [GUK1 C-terminal 12 aa] |  |  | 0.692 ± 0.0077 | 0.727 ± 0.035
YKELVKKIESKN [CIT1 C-terminal 12 aa] |  |  | 0.7257 ± 0.0054 | 0.7078 ± 0.0025
YNKLKGAGHKKE [PAI3 C-terminal 12 aa] |  |  | 0.6777 ± 0.0045 | 0.645 ± 0.0076
YNLKNDILTNLE [SWI1 C-terminal 12 aa] |  |  | 0.73 ± 0.021 | 0.651 ± 0.044
YVIVFFVYDSLL [YOL046C C-terminal 12 aa] |  |  | 0.238 ± 0.0075 | 0.283 ± 0.015
